In CN114989291A (ZHEJIANG ANWEILUO DIAGNOSTIC TECH CO LTD, dated 2022):
Several values for one entry are separate records, joined by “and”; a condition that tells them apart may be missing. Equal entries are not always repeated. Where two headings read alike, the source gives them in different places.

Experiments:
[1] = molecular target: T1, 全长SARS-CoV-2 S蛋白 (野生型, IVCAS 6.7512, GenBank ID: QHD43416.1) (SARS-CoV-2, UniProt P0DTC2 14-1273); assay: cell-based or functional assay
[2] = molecular target: SARS-CoV-2真病毒的S蛋白 (SARS-CoV-2, UniProt P0DTC2 14-1273); assay: cell-based or functional assay
[3] = molecular target: T1, 全长SARS-CoV-2 S蛋白 (野生型, IVCAS 6.7512, …); assay: cell-based or functional assay; remark: listed apart in the source
[4] = molecular target: 重组的RBD抗原 (SARS-CoV-2 Spike糖蛋白的RBD区域) (SARS-CoV-2, UniProt P0DTC2 319-541)

B1: 抗SARS-CoV-2全人源化单克隆抗体1B3 (antibody, V domains shown)
VH: VQLVESGGGVVQPGRSLRLSCAASGFTFSSYAMHWVRQAPGKGLEWVAVISYDGSNKYYADSVKGRFTISRDNSKNTLYLQMNSLRAEDTAVYYCAKVAGGPYYYDSSGRDWYFDLWGRGTLVTVSA
VL: DIQMTQSPSSLSASVGDRVSITCRASQSISSFLNWFQQKPGKAPNLLIYAASSLESGVPSRFSGSGSGTDFTLTISSLQPEDFATYYCQQSYSAPPTFGQGTRLEIKR
[1]
  EC50, 假病毒细胞模型中和活性 (luciferase, ACE2-293T细胞): 25.6 nM
[2]
  EC50, 真病毒感染的细胞模型中和活性 (Vero E6, 结晶紫细胞活率): 16.4 μg/ml and 109 nM
[3]
  EC50, 假病毒细胞模型中和活性 (luciferase, ACE2-293T细胞): 3.86 µg/mL
[4]
  EC50: 0.0134 µg/mL
